In US20250002593A1 (INMAGENE PTE, published 2025):

T1: recombinant hIL-36R-his (human, UniProt Q9HB29 20-337)
T1 construct: Residues 1-337 (extracellular domain) are stated for the IL-36R-his used as immunogen; The range includes the signal peptide; no cleavage site is stated; also called recombinant hIL36R protein; recombinant human IL-36R-his protein; not shown: His tag
T1 sequence: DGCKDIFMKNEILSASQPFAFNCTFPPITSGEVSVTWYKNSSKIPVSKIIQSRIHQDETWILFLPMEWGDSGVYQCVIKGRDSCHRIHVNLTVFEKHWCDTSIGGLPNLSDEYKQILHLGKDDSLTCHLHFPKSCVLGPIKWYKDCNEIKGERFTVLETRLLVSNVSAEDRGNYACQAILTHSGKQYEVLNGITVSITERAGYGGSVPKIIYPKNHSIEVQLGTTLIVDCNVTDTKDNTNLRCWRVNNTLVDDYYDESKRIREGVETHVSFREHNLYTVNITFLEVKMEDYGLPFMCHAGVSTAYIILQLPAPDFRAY

T2: membrane hIL-36R (human, UniProt Q9HB29 20-575)
T2 construct: also called cell membrane human IL-36R on HEK293 cells transfected with pcDNA3.1-hIL36R; IL36R on Jurkat-IL36R-IL1Racp-NFkB-luc reporter cells
T2 sequence: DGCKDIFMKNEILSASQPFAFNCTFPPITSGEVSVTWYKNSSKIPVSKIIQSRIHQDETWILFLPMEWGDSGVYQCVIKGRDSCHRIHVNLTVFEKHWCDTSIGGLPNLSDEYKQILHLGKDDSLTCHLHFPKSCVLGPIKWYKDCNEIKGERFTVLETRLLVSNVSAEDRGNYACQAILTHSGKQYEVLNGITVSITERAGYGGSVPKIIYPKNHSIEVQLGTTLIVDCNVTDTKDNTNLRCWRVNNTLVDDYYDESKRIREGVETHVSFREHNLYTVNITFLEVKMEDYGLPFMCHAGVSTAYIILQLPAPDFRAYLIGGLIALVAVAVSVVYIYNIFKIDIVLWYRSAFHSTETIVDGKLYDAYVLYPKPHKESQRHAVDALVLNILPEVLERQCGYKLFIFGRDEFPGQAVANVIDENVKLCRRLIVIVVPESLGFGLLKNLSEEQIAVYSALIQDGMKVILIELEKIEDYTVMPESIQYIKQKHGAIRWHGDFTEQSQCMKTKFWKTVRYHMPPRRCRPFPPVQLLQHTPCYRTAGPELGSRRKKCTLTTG

T3: Recombinant hIL-36R protein (Acrobio, Cat #IL2-H52H6) (human, UniProt Q9HB29 20-335)
T3 construct: Bought soluble protein; also called recombinant human IL-36R protein
T3 sequence: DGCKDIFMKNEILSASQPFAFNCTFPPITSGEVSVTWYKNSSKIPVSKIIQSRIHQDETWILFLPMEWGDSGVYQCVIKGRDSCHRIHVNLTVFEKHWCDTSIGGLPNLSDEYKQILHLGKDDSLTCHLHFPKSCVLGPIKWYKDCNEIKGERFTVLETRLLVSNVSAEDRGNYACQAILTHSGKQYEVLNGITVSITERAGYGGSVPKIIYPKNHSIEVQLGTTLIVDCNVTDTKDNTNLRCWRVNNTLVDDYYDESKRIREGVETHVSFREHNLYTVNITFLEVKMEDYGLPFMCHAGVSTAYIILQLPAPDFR

T4: Recombinant hIL1R1 protein (human, UniProt P14778 18-332, limits assumed)
T4 sequence (looked up): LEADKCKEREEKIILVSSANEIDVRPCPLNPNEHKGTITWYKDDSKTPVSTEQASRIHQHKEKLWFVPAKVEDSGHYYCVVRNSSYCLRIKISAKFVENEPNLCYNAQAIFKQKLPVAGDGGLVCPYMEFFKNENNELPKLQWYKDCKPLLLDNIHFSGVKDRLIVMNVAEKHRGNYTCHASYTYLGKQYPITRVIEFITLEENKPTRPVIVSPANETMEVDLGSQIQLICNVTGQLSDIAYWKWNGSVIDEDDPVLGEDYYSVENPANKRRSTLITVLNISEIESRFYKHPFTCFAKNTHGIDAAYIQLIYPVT

B1: ANB019 (antibody, V domains shown)
VH: QVQLVQSGAEVKKPGASVKVSCKASGYTFTNYWMNWVRQAPRQGLEWMGMFHPTGDVTRLNQKFKDRVTMTRDTSTSTVYMELSSLRSEDTAVYYCARTTSMIIGGFAYWGQGTLVTVSS
VL: DIVMTQTPLSLSVTPGQPASISCRSSKSLLHRNAITYFYWYLHKPGQPPQLLIYQMSNLASGVPDRFSGSGSGTDFTLKISRVEAEDVGVYYCAQNLELPLTFGGGTKVEIK
notes: also called benchmark antibody
B2: REGN14 (antibody, V domains shown)
VH: EVQLVESGGDLVQPGRSLRLSCAASGFTFDDYAMHWVRQAPGKGLEWVSVISWNSDVIAYSDSVKGRFTISRDNAKNSLYLQMNSLRTEDTALYYCTKGHKWSFFDYWGQGTLVTVSS
VL: EIVLTQSPATLSLSPGERATLSCRASQSISSYLAWYQQKPGQAPRLLIFNVANRATDIPARFSGSGSGTDFTLTISSLEPEDFAVYYCQQRSNWPLTFGGGTKVEIK
notes: as for B1

Assays:
recombinant hIL-36R-his = target: T1, recombinant hIL-36R-his; test: ELISA on coated recombinant hIL36R protein (1 µg/ml), detection with HRP anti-hIgG; unit taken from the x axis Ab(µg/mL)
Protocol: Recombinant hIL36R protein was coated at a concentration of 1 μg/ml 100 ul per well in ELISA plate overnight. After wash, the plate was blocked with PBS containing 1% BSA+1% normal goat serum+0.05% Tween20. After that, 100 ul serially diluted antibodies were added into the plate and incubated for 1 h. The specific binding to hIL36R of antibodies was detected by HRP linked anti-hIgG antibody.

membrane hIL-36R [1] = target: T2, membrane hIL-36R; test: flow cytometry on HEK293 cells transfected with pcDNA3.1-hIL36R, FITC anti-hIgG, MFI (median); unit taken from the x axis
Protocol: After 48 h, the transfected cells were subjected to FACS analysis for anti-IL-36R antibodies binding. Cells were collected and seeded into 96 well plate at a concentration of 100000 cells/50 ul/well. 50 ul serially diluted antibodies were added to the cells and incubate at 4° C. for 1 h. After that, cells were washed twice with PBS and 100 ul diluted secondary antibody (FITC labeled anti-hIgG) was added into the cells and incubated at 4° C. for 30 min. After incubation, cells were washed twice with PBS and analyzed by flow cytometry.

membrane hIL-36R [2] = target: T2, membrane hIL-36R; test: cell-based or functional assay
membrane hIL-36R [3] = target: T2, membrane hIL-36R; test: cell-based or functional assay; remark: listed apart in the source
[4] = target: T3, Recombinant hIL-36R protein (Acrobio, …); test: SPR (Biacore T200, 25 C), antibody captured by Fc, hIL-36R analyte
Protocol: To evaluate binding affinity of antibodies to hIL-36R, the binding affinity of antibodies were tested by surface plasmon resonance (SPR) technology with Biacore T200. The assay was performed at 25° C. and the running buffer was HBS-EP+. Diluted antibodies were captured on the sensor chip through Fc capture method.

membrane hIL-36R [5] = target: T2, membrane hIL-36R; test: cell-based or functional assay; remark: listed apart in the source
membrane hIL-36R [6] = target: T2, membrane hIL-36R; test: cell-based or functional assay; remark: listed apart in the source
[7] = target: T4, Recombinant hIL1R1 protein; test: ELISA on coated recombinant hIL1R1 protein, detection with HRP anti-hIgG
Protocol: Then the plate was blocked with PBS containing 1% BSA+1% normal goat serum+0.05% Tween20. After that, 100 ul serially diluted antibodies were added into the plate and incubated for 1 h. The specific binding to hIL1R1 of antibodies was detected with HRP linked anti hIgG antibody.

membrane hIL-36R [8] = target: T2, membrane hIL-36R; test: cell-based or functional assay; remark: listed apart in the source
membrane hIL-36R [9] = target: T2, membrane hIL-36R; test: cell-based or functional assay; remark: listed apart in the source
membrane hIL-36R [10] = target: T2, membrane hIL-36R; test: cell-based or functional assay; remark: listed apart in the source
membrane hIL-36R [11] = target: T2, membrane hIL-36R; test: cell-based or functional assay; remark: listed apart in the source

Row | EC50 (recombinant hIL-36R-his) | EC50 (membrane hIL-36R [1]) | IC50, inhibition of IL-36β induced IL-6 release in primary human epithelial keratinocytes (HEK cells) [panel IL-6] (membrane hIL-36R [2]) | IC50, inhibition of IL-36β induced IL-8 release in primary human epithelial keratinocytes (HEK cells) [panel IL-8] (membrane hIL-36R [2]) | IC50, inhibition of IL-36β induced TNF-α release in primary human epithelial keratinocytes (HEK cells) [panel TNF-α] (membrane hIL-36R [2]) | Kd [4] | koff [4] | kon [4] | IC50, inhibition of IL-36γ induced IL-6 release in primary human epithelial keratinocytes (HEK cells) [panel IL-6] (membrane hIL-36R [5]) | IC50, inhibition of IL-36γ induced IL-8 release in primary human epithelial keratinocytes (HEK cells) [panel IL-8] (membrane hIL-36R [5]) | IC50, inhibition of IL-36γ induced TNF-α release in primary human epithelial keratinocytes (HEK cells) [panel TNF-α] (membrane hIL-36R [5]) | IC50, inhibition of IL-36α induced IL-6 release in primary human epithelial keratinocytes (HEK cells) [panel IL-6] (membrane hIL-36R [6]) | IC50, inhibition of IL-36α induced IL-8 release in primary human epithelial keratinocytes (HEK cells) [panel IL-8] (membrane hIL-36R [6]) | IC50, inhibition of IL-36α induced TNF-α release in primary human epithelial keratinocytes (HEK cells) [panel TNF-α] (membrane hIL-36R [6]) | binding result [7] | IC50, inhibition of IL-36α induced IL-8 release in A431 cells (IL-8 ELISA, OD450) [panel IL-36α] (membrane hIL-36R [8]) | IC50, inhibition of IL-36β induced IL-8 release in A431 cells (IL-8 ELISA, OD450) [panel IL-36β] (membrane hIL-36R [8]) | IC50, inhibition of IL-36γ induced IL-8 release in A431 cells (IL-8 ELISA, OD450) [panel IL-36γ] (membrane hIL-36R [8]) | IC50, inhibition of IL-36α induced IL-8 release in primary human dermal fibroblast (HDF) cells (IL-8 ELISA, OD450) (membrane hIL-36R [9]) | further results | Binder
1 | 0.0228 µg/mL | 0.119 µg/mL | 0.094 µg/mL | 0.35 µg/mL | 0.0577 µg/mL | 13.2 nM | 0.000444 s⁻¹ | 33500 M⁻¹ s⁻¹ | 0.159 µg/mL | 0.187 µg/mL | 0.0726 µg/mL | 1.35 µg/mL | 1.15 µg/mL | 0.266 µg/mL | no binding (tested: 1 µg/mL) | 1.58 µg/mL | 0.496 µg/mL | 0.0474 µg/mL | 0.106 µg/mL | IC50, IL-36R reporter assay: inhibition of ligand induced luminescence in Jurkat-IL36R-IL1Racp-NFkB-luc cells (membrane hIL-36R [3]): 0.0324 µg/mL | B1
2 | 0.0106 µg/mL | 0.0582 µg/mL | 0.0225 µg/mL | 0.253 µg/mL | 0.0298 µg/mL | 3.74 nM | 0.000283 s⁻¹ | 75600 M⁻¹ s⁻¹ | 0.148 µg/mL | 0.114 µg/mL | 0.0347 µg/mL | 1.73 µg/mL | 1.47 µg/mL | 0.353 µg/mL | no binding (tested: 1 µg/mL) | 2.29 µg/mL | 1.02 µg/mL | 0.0627 µg/mL | 0.0877 µg/mL | IC50, IL-36R reporter assay: inhibition of ligand induced luminescence in Jurkat-IL36R-IL1Racp-NFkB-luc cells (printed REGN-14) (membrane hIL-36R [10]): 0.169 µg/mL; IC50, IL-36R reporter assay: inhibition of IL-36α induced luminescence in Jurkat-IL36R-IL1Racp-NFkB-luc cells (printed REGN-14) (membrane hIL-36R [11]): 0.0839 nM | B2
